The target in one data set is hnRNP A1 UP1 fragment (UniProt P09651 1-196). The experiment in a line: competition.
The target in a further data set is T1, KSRP (UniProt Q92945 1-711).
T1 sequence: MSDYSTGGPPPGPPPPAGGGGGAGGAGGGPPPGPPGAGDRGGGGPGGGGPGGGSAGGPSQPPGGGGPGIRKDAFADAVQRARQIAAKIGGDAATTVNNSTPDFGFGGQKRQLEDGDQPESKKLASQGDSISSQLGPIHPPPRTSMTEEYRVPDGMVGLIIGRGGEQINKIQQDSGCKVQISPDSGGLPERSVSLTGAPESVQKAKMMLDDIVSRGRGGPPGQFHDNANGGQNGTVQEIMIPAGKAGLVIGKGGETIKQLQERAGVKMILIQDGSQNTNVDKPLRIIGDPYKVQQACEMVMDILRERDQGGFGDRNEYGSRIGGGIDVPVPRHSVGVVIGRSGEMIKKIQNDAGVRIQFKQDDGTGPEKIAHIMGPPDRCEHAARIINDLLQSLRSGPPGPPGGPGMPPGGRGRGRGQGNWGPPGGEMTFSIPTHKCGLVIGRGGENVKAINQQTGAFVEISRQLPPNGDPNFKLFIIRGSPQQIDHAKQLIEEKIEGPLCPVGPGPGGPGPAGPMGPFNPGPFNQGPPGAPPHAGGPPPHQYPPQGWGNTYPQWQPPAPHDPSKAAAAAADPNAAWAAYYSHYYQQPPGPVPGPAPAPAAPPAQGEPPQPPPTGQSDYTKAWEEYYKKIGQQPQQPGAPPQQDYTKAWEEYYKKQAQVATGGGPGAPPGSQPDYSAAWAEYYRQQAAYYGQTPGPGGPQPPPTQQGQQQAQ
In words: competition.

hnRNP A1 UP1 fragment, sequence (P09651 1-196): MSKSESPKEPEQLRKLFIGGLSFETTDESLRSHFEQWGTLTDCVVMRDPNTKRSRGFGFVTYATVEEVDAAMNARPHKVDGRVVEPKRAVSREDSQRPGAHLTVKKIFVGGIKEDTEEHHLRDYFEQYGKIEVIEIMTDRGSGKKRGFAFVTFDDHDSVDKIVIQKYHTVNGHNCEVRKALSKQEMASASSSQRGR

B1: let-7a-1 loop (structured_RNA)
RNA: GUUGUAUAGUUUUAGGGUCACACCCACCACUGGGAGAUAACUAUACAAUC
Regarding B1, the binding result with hnRNP A1 UP1 fragment and in the data set with KSRP was “binds” each time.

The record behind these values is article PMC2923024.
